From the supplement of paper PMC10065799, “High-throughput profiling of sequence recognition by tyrosine kinases and SH2 domains using bacterial peptide display” (eLife, 2023)

What was measured:
[1] = molecular target: FGFR3 (UniProt P22607); assay: phosphorylation enrichment, bacterial display (enrichment ratio); higher = better substrate or ligand; peptides without Tyr show the background
[2] = molecular target: EPHB2 (UniProt P29323); assay: as above
[3] = molecular target: Hck (UniProt P08631); assay: as above
[4] = molecular target: EPHB1 (UniProt P54762); assay: as above
[5] = system: Fer (mouse); assay: as above
[6] = system: c-Abl (mouse); assay: as above
[7] = molecular target: FGFR1 (UniProt P11362); assay: as above
[8] = system: AncSZ; assay: as above
[9] = molecular target: Fyn (UniProt P06241); assay: as above
[10] = molecular target: MERTK (UniProt Q12866); assay: as above
[11] = molecular target: Jak2 (UniProt O60674); assay: as above
[12] = system: c-Src; assay: as above
[13] = molecular target: Fes (UniProt P07332); assay: as above
[14] = molecular target: Grb2 SH2 (UniProt P62993); assay: SH2 binding enrichment of the phosphorylated peptide, bacterial display (enrichment ratio); higher = better substrate or ligand; peptides without Tyr show the background
[15] = molecular target: SHP2-C SH2; assay: as above
[16] = molecular target: c-Src SH2; assay: as above
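For SH2 binding enrichment of the phosphorylated peptide, bacterial display in this document: peptide library displayed on the E. coli surface as eCPX fusions, selected cells deep-sequenced, score is each peptide's frequency after selection divided by its frequency in the input.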
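For phosphorylation enrichment, bacterial display in this document: 11-residue human phosphosite peptides and single-mutation variants displayed on the E. coli surface, counted by deep sequencing, each peptide's frequency after selection divided by its frequency in the unselected input library; frequency after pTyr selection over input frequency; kinase dosed for 20-30% of maximal phosphorylation in three min.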

FGFR3, sequence (P22607 whole entry, looked up): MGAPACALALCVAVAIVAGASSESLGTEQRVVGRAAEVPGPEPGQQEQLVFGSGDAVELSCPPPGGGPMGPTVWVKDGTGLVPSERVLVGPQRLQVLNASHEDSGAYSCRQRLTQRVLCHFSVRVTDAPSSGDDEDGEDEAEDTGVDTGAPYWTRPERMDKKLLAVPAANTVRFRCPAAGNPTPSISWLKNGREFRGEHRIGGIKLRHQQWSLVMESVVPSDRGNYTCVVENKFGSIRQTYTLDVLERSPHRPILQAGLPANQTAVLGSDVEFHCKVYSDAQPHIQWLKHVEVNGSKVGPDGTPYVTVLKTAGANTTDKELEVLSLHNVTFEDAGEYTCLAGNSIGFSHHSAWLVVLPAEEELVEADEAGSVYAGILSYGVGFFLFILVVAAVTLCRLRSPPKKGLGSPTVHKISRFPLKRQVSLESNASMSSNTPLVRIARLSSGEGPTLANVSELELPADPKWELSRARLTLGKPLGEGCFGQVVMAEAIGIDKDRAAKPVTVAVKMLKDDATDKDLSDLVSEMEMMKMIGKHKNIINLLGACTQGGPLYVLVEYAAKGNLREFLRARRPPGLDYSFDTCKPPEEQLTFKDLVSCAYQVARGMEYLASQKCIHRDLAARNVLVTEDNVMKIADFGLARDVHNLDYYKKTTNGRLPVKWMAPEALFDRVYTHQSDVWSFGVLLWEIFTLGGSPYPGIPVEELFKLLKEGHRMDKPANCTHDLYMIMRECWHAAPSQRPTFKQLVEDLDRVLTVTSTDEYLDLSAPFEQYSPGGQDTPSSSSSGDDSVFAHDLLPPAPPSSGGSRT
Hck, sequence (P08631 whole entry, looked up): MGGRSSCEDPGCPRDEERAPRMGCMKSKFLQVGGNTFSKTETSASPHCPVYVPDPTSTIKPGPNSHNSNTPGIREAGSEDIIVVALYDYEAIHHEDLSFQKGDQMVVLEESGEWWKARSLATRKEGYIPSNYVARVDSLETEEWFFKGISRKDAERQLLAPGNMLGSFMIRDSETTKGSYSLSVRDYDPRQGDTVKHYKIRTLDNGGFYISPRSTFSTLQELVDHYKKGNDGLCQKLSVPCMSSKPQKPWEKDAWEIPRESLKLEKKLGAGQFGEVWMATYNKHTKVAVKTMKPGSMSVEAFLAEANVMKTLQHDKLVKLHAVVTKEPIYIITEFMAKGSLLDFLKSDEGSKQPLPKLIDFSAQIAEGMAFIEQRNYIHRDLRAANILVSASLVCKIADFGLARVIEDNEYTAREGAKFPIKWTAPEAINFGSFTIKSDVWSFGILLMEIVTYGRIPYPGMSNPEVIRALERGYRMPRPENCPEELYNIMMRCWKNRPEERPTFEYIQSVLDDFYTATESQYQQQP
Jak2, sequence (O60674 whole entry, looked up): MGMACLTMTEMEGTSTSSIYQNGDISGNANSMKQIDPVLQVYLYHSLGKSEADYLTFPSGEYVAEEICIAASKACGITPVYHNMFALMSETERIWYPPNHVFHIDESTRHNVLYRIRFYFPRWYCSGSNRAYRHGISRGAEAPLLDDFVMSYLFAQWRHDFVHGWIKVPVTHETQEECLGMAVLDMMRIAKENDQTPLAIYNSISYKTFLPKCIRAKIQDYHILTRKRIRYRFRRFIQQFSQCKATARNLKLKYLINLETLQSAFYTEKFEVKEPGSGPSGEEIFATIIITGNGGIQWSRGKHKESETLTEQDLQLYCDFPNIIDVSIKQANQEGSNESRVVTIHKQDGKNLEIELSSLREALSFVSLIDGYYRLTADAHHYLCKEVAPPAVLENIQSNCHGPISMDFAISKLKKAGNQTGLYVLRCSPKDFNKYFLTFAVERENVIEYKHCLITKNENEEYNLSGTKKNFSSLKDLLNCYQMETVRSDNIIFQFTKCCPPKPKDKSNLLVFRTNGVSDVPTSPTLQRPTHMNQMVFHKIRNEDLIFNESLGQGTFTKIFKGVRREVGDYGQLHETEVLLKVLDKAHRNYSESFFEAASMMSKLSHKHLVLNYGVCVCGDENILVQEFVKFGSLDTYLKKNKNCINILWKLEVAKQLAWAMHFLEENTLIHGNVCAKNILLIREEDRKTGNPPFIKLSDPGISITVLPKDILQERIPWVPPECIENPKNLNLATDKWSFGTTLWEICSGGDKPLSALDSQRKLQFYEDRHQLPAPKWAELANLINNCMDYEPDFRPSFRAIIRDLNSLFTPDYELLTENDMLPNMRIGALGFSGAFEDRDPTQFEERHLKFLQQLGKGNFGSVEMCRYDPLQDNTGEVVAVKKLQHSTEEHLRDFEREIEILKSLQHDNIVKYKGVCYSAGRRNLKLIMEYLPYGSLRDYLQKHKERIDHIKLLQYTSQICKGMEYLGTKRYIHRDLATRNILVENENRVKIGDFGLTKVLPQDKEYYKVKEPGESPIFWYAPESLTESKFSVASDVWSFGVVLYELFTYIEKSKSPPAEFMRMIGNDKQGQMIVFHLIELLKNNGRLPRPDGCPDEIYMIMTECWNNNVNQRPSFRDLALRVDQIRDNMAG
Fes, sequence (P07332 whole entry, looked up): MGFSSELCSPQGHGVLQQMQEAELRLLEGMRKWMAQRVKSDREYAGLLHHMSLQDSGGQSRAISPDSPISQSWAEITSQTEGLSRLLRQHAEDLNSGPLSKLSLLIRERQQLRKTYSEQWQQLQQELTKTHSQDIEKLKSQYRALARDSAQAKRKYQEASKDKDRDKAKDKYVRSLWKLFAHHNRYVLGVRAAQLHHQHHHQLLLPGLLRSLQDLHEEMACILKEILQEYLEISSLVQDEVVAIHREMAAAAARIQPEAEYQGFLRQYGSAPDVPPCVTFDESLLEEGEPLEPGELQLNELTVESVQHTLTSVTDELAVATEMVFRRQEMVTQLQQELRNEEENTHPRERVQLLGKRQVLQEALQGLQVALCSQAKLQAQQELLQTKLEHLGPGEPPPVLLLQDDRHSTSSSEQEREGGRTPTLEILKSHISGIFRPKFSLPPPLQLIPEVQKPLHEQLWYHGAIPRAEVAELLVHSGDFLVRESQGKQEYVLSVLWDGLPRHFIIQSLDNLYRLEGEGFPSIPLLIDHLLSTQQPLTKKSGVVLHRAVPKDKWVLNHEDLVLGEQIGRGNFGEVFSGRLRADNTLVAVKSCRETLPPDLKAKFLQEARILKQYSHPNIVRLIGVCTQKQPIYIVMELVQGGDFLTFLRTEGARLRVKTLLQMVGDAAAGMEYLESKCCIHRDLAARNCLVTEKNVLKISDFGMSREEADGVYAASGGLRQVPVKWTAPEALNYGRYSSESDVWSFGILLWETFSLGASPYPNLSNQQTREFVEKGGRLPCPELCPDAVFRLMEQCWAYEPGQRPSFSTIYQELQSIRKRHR
MERTK, sequence (Q12866 whole entry, looked up): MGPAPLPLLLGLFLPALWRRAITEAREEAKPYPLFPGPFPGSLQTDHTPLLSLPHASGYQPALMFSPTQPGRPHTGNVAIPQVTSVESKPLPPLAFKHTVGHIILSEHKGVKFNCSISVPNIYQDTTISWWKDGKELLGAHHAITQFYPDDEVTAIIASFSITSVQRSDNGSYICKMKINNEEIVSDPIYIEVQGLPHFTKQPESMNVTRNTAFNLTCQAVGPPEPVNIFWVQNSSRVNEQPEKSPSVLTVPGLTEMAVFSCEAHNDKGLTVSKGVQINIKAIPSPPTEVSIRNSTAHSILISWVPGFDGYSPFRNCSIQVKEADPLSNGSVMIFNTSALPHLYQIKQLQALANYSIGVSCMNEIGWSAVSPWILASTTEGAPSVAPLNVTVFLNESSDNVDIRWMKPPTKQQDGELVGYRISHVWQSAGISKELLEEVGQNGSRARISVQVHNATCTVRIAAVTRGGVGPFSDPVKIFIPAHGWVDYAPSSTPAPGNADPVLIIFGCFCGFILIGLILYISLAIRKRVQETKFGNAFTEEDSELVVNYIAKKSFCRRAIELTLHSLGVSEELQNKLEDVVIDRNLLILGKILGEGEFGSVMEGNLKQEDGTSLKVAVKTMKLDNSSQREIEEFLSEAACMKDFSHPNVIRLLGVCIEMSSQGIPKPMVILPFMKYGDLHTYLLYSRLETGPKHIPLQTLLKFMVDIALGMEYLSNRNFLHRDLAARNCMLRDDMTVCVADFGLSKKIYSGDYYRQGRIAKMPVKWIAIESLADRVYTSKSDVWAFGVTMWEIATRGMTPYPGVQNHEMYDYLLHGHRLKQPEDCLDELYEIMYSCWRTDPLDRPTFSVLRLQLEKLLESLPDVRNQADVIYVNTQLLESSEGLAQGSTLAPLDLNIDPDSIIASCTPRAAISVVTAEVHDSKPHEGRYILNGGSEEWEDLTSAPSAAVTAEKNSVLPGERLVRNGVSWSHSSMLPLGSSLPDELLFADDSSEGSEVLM
Grb2 SH2, sequence (P62993 whole entry, looked up): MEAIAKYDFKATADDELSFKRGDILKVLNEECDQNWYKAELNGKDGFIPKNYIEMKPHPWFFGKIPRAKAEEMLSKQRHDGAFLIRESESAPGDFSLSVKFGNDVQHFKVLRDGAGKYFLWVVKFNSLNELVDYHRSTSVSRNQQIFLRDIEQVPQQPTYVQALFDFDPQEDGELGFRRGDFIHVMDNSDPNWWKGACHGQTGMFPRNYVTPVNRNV
Fyn, sequence (P06241 whole entry, looked up): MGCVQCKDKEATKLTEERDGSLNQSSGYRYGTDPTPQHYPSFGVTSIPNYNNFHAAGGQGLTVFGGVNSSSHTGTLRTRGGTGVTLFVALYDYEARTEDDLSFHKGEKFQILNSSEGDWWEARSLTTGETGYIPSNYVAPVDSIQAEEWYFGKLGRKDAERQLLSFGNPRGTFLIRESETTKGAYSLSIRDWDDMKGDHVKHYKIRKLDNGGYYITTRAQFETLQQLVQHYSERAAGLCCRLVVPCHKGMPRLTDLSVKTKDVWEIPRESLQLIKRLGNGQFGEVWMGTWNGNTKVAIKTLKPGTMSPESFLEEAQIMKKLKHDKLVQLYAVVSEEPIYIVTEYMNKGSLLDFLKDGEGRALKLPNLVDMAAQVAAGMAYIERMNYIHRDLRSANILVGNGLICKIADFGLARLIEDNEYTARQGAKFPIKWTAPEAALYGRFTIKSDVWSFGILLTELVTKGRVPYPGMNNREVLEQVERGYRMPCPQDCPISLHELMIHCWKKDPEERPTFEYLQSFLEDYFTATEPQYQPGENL

Sequence	phosphorylation enrichment [1]	phosphorylation enrichment [2]	phosphorylation enrichment [3]	phosphorylation enrichment [4]	phosphorylation enrichment [5]	phosphorylation enrichment [6]	phosphorylation enrichment [7]	phosphorylation enrichment [8]	phosphorylation enrichment [9]	phosphorylation enrichment [10]	phosphorylation enrichment [11]	phosphorylation enrichment [12]	phosphorylation enrichment [13]	SH2 binding enrichment [14]	SH2 binding enrichment [15]	SH2 binding enrichment [16]
KDHRDYKYQPR [SOX9_Y172_P170R]	0.514	0.424	0.489	0.397	0.445	0.784	0.482	0.534	0.61	0.456	0.779	0.426	0.864	1.26	1.08	1.22
KDQGTYEDYVE [MYL6_Y86]	0.721	0.576	0.617	0.493	0.56	0.866	0.534	1.24	0.647	0.543	1.13	0.768	1.23	0.755	0.553	0.784
KDYETYQPFQN [CTNND2_Y1157]	0.801	7.67	6.07	3.29	1.47	0.846	0.686	1.72	6	0.514	0.883	4.83	1.17	0.887	0.664	0.43
KEAVLYPHLPP [SQSTM1_Y383_A381V]	0.646	0.579	0.385	0.409	0.363	0.798	0.444	0.566	0.415	0.422	0.659	0.464	0.727	0.911	0.658	0.514
KEEEDYKEENN [BMS1_Y651]	0.561	0.554	0.516	0.532	0.55	0.75	0.468	1.15	0.475	0.422	1	0.453	1.06	0.769	0.716	0.499
KELANYYKLHH [AK7_Y390]	1.83	1.89	0.495	4.12	0.383	0.497	2.93	0.708	0.453	0.844	2.44	0.509	0.685	0.825	0.622	0.697
KELAPYDENWF [RPS19_Y48]	0.664	0.618	0.517	0.506	0.53	0.597	0.563	1.2	0.506	0.421	1.06	0.458	1.12	0.957	0.685	0.767
KENITYMKSEQ [L1TD1_Y24_R27S]	0.524	0.426	0.457	0.411	0.32	0.503	0.456	0.806	0.358	0.39	0.585	0.425	0.767	1.01	0.629	0.53
KFDLMYAKCAF [TUBA1A_Y399_R402C]	0.841	0.723	0.677	0.72	0.68	1.06	0.491	1.27	0.567	0.624	1.25	0.598	1.35	0.687	0.473	0.557
KFDLMYAKHAF [TUBA1A_Y399_R402H]	0.564	0.543	0.438	0.521	1.07	0.573	0.397	0.794	0.435	0.408	0.805	0.44	0.987	0.847	0.772	0.527
KFGTNYRVGSS [CPO_Y278_YF]	0.567	0.382	0.465	0.422	0.418	0.725	0.509	1.04	0.444	0.508	0.767	0.466	0.803	1.23	0.914	0.586
KGFCGYSFDDI [TMEM230_Y110_R108C_YF]	0.863	0.568	0.456	0.613	0.504	1.07	0.595	1.18	0.526	0.471	1.28	1.16	1.35	0.71	0.516	0.983
KGLKVYVNGTL [ADGRD1_Y183_E178K]	0.677	0.576	0.441	0.524	0.452	0.584	0.421	1.11	0.364	0.431	0.923	0.406	1.16	1.32	0.703	0.549
KGTAGYTTVAV [RET_Y752_R749T]	0.34	0.362	0.357	0.46	0.313	0.448	0.327	0.517	0.359	0.349	0.398	0.37	0.493	0.757	2.15	1.99
KHTLSFVDVGT [SDHA_Y629_Y629F]	0.497	0.495	0.364	0.319	0.371	0.451	0.348	0.661	0.384	0.315	0.624	0.292	0.691	0.862	0.54	0.562
KIDAKYKKKIE [WDR19_Y1230]	0.368	0.373	0.408	0.27	0.401	0.631	0.368	0.698	0.308	0.418	0.594	0.346	0.891	0.601	0.602	0.367
